# Experimental data from the supplement of paper PMC7125110.
# ± gives the standard error. For some assays here: This sample holds only a part of the variants without activity.
# B1: glmS ribozyme (parent)
# chain: AUAAAAGCGCCAGAACUACAGAAAUGUAGUUGACGAGGAGGAGGUUUAUCGAAUUUUCGGCGGAUGCCUCCAAA
# Experiments:
# Details in all cases: with glucosamine-6-phosphate
# [1] = variants of: B1; assay: kcat; higher = faster cleavage; RNA array
# Method in brief: (§1)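 On sequenced MiSeq chips, barcoded ribozyme variants were made in situ by E. coli RNA polymerase and followed at 37 °C through a hybridised Cy3 probe. Glucosamine-6-phosphate was flowed in at 40 μM to 10 mM in HEPES/KCl/Mg(OAc)2 buffer. Exponential fits to normalised per-tile medians gave kobs, and weighted Michaelis–Menten fits gave kcat and KM.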
# [2] = variants of: B1; assay: self-cleavage kobs at 40 uM GlcN6P; higher = faster cleavage; RNA array
# Method in brief: as §1
# [3] = variants of: B1; assay: self-cleavage kobs at 640 uM GlcN6P; higher = faster cleavage; RNA array
# Method in brief: as §1
# [4] = variants of: B1; assay: self-cleavage kobs at 2500 uM GlcN6P; higher = faster cleavage; RNA array
# Method in brief: as §1
# [5] = variants of: B1; assay: self-cleavage kobs at 10000 uM GlcN6P; higher = faster cleavage; RNA array
# Method in brief: as §1
# [6] = variants of: B1; assay: self-cleavage kobs at 160 uM GlcN6P; higher = faster cleavage; RNA array
# Method in brief: as §1
# [7] = variants of: B1; assay: KM; higher = weaker cofactor use; RNA array
# Method in brief: as §1
Variant,kcat [1] [s⁻¹],self-cleavage kobs at 40 uM GlcN6P [2] [s⁻¹],self-cleavage kobs at 640 uM GlcN6P [3] [s⁻¹],self-cleavage kobs at 2500 uM GlcN6P [4] [s⁻¹],self-cleavage kobs at 10000 uM GlcN6P [5] [s⁻¹],self-cleavage kobs at 160 uM GlcN6P [6] [s⁻¹],KM [7] [µM]
U57C C71G,1.18e-05 ± 1.2e-06,< 1e-05,–,–,–,–,–
U57C C71U,0.000136 ± 1.9e-05,< 1e-05,9.57e-05 ± 1.9e-05,8.71e-05 ± 2.6e-05,0.000139 ± 1.6e-05,–,–
C61A C71G,1.3e-05 ± 2.8e-06,–,–,–,–,–,–
U57G C67A,2.87e-05 ± 6.3e-06,–,–,–,2.45e-05 ± 1.2e-05,–,–
U57G C67U,3.05e-05 ± 1e-05,–,–,4.91e-05 ± 1.5e-05,2.19e-05 ± 1e-05,–,–
U57G U69A,3.67e-05 ± 1.4e-05,–,5.54e-05 ± 2.1e-05,–,–,–,–
U56G U69G C71U,4.56e-05 ± 1.5e-05,–,3.88e-05 ± 1.7e-05,5.83e-05 ± 2e-05,–,8.5e-05 ± 2.7e-05,–
U57A C70U,0.000272 ± 5.5e-05,–,5.92e-05 ± 7.8e-06,0.000133 ± 1.9e-05,0.000234 ± 3.8e-05,5.07e-05 ± 2.3e-05,2300 ± 790
U57A C70A,1.98e-05 ± 3.5e-06,–,–,–,–,–,–
C58U C67A,3.03e-05 ± 4.9e-06,< 1e-05,–,–,3.07e-05 ± 7.8e-06,–,–
C61A U65G C67U,2.68e-05 ± 7.3e-06,–,–,–,–,–,–
C58A G66U,5.19e-05 ± 5.8e-06,–,–,–,4.3e-05 ± 5.6e-06,–,–
C58G A64G,0.000129 ± 2.7e-05,–,6.72e-05 ± 2.7e-05,6.74e-05 ± 1.2e-05,0.000115 ± 1.7e-05,–,–
C61G C71A,1.34e-05 ± 3.8e-06,–,–,–,–,–,–
C61G G62U C68G,1.21e-05 ± 3.9e-06,–,–,–,–,–,–
U57G G62U,< 1e-05,< 1e-05,–,< 1e-05,–,–,–
U57G C68U,3.41e-05 ± 1.5e-05,< 1e-05,3.46e-05 ± 1.4e-05,6.22e-05 ± 1.2e-05,1.92e-05 ± 8.6e-06,–,–
U57C C58G,3.57e-05 ± 4.2e-06,–,–,–,3.19e-05 ± 1e-05,–,–
C58G G62U C70U,2.66e-05 ± 1.1e-05,–,4.86e-05 ± 2.1e-05,–,–,–,–
C61U C71U,2.55e-05 ± 4.8e-07,< 1e-05,< 1e-05,–,–,< 1e-05,2880 ± 200
C61A C67U C71U,5.2e-05 ± 2.5e-05,–,8.57e-05 ± 2.8e-05,–,–,–,–
U57A C61A,1.53e-05 ± 5.7e-06,–,–,–,–,–,–
U57G C68A C70U,3.59e-05 ± 1.7e-05,–,5.38e-05 ± 1.8e-05,–,–,–,–
G60C G66A,< 1e-05,–,< 1e-05,–,–,–,–
